These results are taken from US20150231240A1, “ANTI-C16ORF54 ANTIBODIES AND METHODS OF USE THEREOF” (priority 2012, published 2015).

The target in assay [1] is T1, human C16orf54 (human, UniProt Q6UWD8 1-224).
T1 construct: also called huC16orf54; hC16orf54
T1 sequence: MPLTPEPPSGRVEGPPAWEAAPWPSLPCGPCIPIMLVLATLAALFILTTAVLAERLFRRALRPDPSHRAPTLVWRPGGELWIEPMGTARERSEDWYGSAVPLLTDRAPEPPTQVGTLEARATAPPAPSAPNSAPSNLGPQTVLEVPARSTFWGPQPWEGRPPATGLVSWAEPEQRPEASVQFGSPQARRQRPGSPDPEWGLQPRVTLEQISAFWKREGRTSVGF
Description: cell-based or functional assay.

In assay [2] the target is T2, cynomolgus monkey C16orf54 (cynomolgus monkey (Macaca fascicularis), UniProt Q6UWD8 1-224 (human entry)).
T2 construct: also called cyno C16orf54; cyno-C16orf54
T2 chain: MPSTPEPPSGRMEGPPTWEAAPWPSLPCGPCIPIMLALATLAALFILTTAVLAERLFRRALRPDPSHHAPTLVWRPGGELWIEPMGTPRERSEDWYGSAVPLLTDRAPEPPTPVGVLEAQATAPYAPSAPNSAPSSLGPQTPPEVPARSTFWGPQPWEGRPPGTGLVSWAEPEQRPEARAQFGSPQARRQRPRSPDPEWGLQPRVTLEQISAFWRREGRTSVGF
Description: flow cytometry, 10 ug/ml antibody, F279-cyno-C16orf54 cells. Here is the method:
(§1) Anti-C16orf54 antibodies which bound to human C16orf54 were tested for their reactivity with human C16orf54 and their crossreactivity with C16orf54 from cynomolgous monkeys (cyno C16orf54) using flow cytometry. Sarcoma cells transfected with and expressing human C16orf54 or cyno C16orf54 were washed with PBS with 0.1% BSA, incubated with FcX receptor blocking solution (BioLegend) for 15 minutes, incubated with 10 μg/ml of anti-C16orf54 antibody for 1 hour at 4° C., washed twice with PBS with 0.1% BSA, incubated with 20 μg/ml of R-Phycoerythrin-AffiniPure F(ab′)2 Fragment Goat Anti-Mouse IgG, Fcγ Fragment Specific (Jackson ImmunoResearch) for 30 minutes at 4° C., washed twice with PBS with 0.1% BSA, incubated with the viability dye TO-PRO-3 iodide (Life Technologies), and immediately analyzed on a MACSQuant Analyzer instrument (Miltenyi). For each cell line and anti-C16orf54 antibody, a fold change was derived by dividing the median fluorescence intensity for Phycoerythrin in the live cell population for the anti-C16orf54 antibody by the median fluorescence intensity for Phycoerythrin in the live cell population for the IgG isotype control antibody. A number of anti-C16orf54 antibodies (see, e.g., R29-8-57B, R29-8-136C, R29-7-1C, R29-67-7A, R29-67-4A, and R29-7-2A) bind human C16orf54 and also bind (e.g., are crossreactive with) cyno C16orf54.

For assay [3], the target named is T1, human C16orf54. The assay is described as follows: flow cytometry, 10 ug/ml antibody, D42M1-huC16orf54 cells. The method, then:
as §1

The target of assay [4] is T1, human C16orf54. Description: flow cytometry titration, KG1 cells (endogenous human C16orf54).
Assay [5] concerns the target T3, human C16orf54 ECD fragment aa1-15 (human).
T3 peptide: MPLTPEPPSGRVEGP
The assay is described as follows: peptide ELISA, 2 ug/ml peptide coated, 10 ug/ml antibody. The method, then: (§2) Anti-C16orf54 antibodies which bind to human C16orf54, including antibodies that are crossreactive with cyno C16orf54, were tested for their binding to various peptides derived from C16orf54 in a peptide ELISA. A 384-well high binding black microplate (Greiner) was incubated with 2 μg/ml of protein (human, cyno, or mouse extracellular domain peptides) for 16 hours, incubated for 1 hr with a blocking buffer (PBS with 5% Fetal Bovine Serum), washed four times with TBS with Tween, incubated for 1 hour with 10 μg/ml of anti-C16orf54 antibody, washed four times with TBS with Tween, incubated for 1 hour with 10 μg/ml of Peroxidase-AffiniPure Goat Anti-Mouse IgG, Fcγ Fragment Specific (Jackson ImmunoResearch), washed four times with TBS with Tween, and peroxidase was detected with a luminometer (Molecular Devices) upon addition of SuperSignal® ELISA Pico Chemiluminescent Substrate (Thermo Scientific). The luminescence signal was determined.

Assay [6] concerns the target T4, human C16orf54 ECD fragment aa9-24 (human).
T4 peptide: SGRVEGPPAWEAAPWP
The assay is described as above. The method, then:
as §2

Assay [7] has as its target T2, cynomolgus monkey C16orf54. Description: flow cytometry titration, F279-cyno-C16orf54 cells. Here is the method:
Anti-C16orf54 antibodies which bound to human C16orf54 were tested for their binding to cells expressing human C16orf54 and cells expressing cyno C16orf54. […] Median fluorescence intensities for each primary antibody concentration were used to derive a flow EC50/Kd using the one site-specific binding with Hill slope model in Prism (GraphPad Prism® Software). Results are shown as flow EC50 in Table 35.

The target of assay [8] is T5, Human C16-ECD peptide (aa1-31) (human).
T5 construct: Coated on plates in the peptide ELISA; also called human extracellular domain peptide
T5 peptide: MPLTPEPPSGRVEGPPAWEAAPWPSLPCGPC
The assay is described as follows: column head 'Full kinetics (nM)' in the table of the C16orf54 peptide binding assays; method and antigen not described; 3 runs.

A further assay concerns C16orf54 ECD peptides. Description: Peptide crossblocking (Table 36). It is filed as binding.
Assay [9] has as its target T6, human C16orf54 (Homo sapiens, UniProt Q6UWD8).
T6 construct: expressed in transfected cells; host or cells: murine sarcoma cells (D42M1-huC16orf54)
T6 sequence (Q6UWD8 1-224): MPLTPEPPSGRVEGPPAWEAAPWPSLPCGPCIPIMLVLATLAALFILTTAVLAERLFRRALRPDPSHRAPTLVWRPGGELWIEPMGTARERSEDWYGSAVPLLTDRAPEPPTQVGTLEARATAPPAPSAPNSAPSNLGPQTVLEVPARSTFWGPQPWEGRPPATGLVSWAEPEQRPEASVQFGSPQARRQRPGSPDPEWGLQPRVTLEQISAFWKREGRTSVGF
The assay is described as follows: Flow cytometry reactivity with sarcoma cells expressing human C16orf54 (fold change over isotype). It is filed as binding. Particulars: for binding to human C16orf54 (flow cytometry): sarcoma cells expressing human C16orf54, 10 μg/ml antibody. Here is the method: as §1, with “antibody.” for “antibody. A number of anti-C16orf54 antibodies (see, e.g., R29-8-57B, R29-8-136C, R29-7-1C, R29-67-7A, R29-67-4A, and R29-7-2A) bind human C16orf54 and also bind (e.g., are crossreactive with) cyno C16orf54.”

For assay [10], the target named is T7, extracellular domain of c16orf54 (amino acids 1-31) fused to human IgG1 Fc (Homo sapiens, UniProt Q6UWD8).
T7 construct: the extracellular domain of c16orf54 (amino acids 1-31) either N terminal or C-terminal to a human IgG1 Fc domain; made in house; host or cells: 293 T cells, transient; Protein A purification
T7 sequence (Q6UWD8 1-31 limits assumed): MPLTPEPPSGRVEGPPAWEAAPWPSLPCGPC
The assay is described as follows: C16orf54 peptide-Fc fusion protein ELISA. It is filed as binding. Particulars: serial dilution of antibody; HRP-conjugated anti mouse secondary. The method, then: Anti-C16orf54 antibodies which bind to human C16orf54, including antibodies that are crossreactive with cyno C16orf54, were tested for their binding to various peptides derived from C16orf54 that were fused to human IgG (e.g., IgG1) constant regions to generate various peptide-Fc fusion proteins in an Fc-based ELISA. An exemplary Fc sequence comprises an IgG1 Hinge region sequence and IgG1 CH3 and […] domain sequences.
The fusion proteins were transiently expressed in 293 T cells. Protein was purified from the 293 expression supernatants by Protein A-based affinity purification. Exemplary C16 peptide-Fc fusion constructs that were made and purified are shown with their protein yield in Table 38. ELISA assays were performed by coating 384 well plates with the fusion proteins overnight at 4C. Antibodies were analyzed by serial dilution with concentrations ranging from 40 ug/mL to […]. Binding was detected with an HRP-conjugated anti mouse secondary antibody.

In assay [11] the test system is human C16orf54 extracellular domain peptides. The assay is described as follows: C16orf54 peptide ELISA, human extracellular domain peptides. It is filed as binding. Particulars: human, cyno, or mouse extracellular domain peptides, not told apart; 10 μg/ml antibody. The method, then: as §2

B1: R29-8-57B mcMMAF (protein)
VH: DVQLQESGPGLVKPSQSLSLTCTVTGYSITSDYAWNWIRQFPGNKLEWMGYINYSGSTRYNPSLKSRISITRDTSKNHFFLQLNSVTPEDTATYHCARERYDGVYYGMDYWGQGTSVTVSS
VL: DIVMSQSPSSLAVSVGEKVTMSCKSSQSLLYSSNQKNYLAWYQQKPGQSPKLLIYWASTRESGVPDRFTGSGSGTDFTLTISSVKTEDLAVYYCQQYYSYRTFGGGTKLEIK
modifications: maleimidocaproyl-monomethylauristatin F (MC-MMAF) on reduced cysteine thiols of the antibody; positions not given
In the assay with human C16orf54 [1], B1 registered an IC50 nM, cell viability, C16orf54 expressing sarcoma line 2, 72 hours of 0.1 nM and an IC50 (nM), cell viability, C16orf54 expressing Sarcoma line 1, 72 hours of 0.2 nM.

B2: R29-8-57B (antibody, V domains shown)
VH: DVQLQESGPGLVKPSQSLSLTCTVTGYSITSDYAWNWIRQFPGNKLEWMGYINYSGSTRYNPSLKSRISITRDTSKNHFFLQLNSVTPEDTATYHCARERYDGVYYGMDYWGQGTSVTVSS
VL: DIVMSQSPSSLAVSVGEKVTMSCKSSQSLLYSSNQKNYLAWYQQKPGQSPKLLIYWASTRESGVPDRFTGSGSGTDFTLTISSVKTEDLAVYYCQQYYSYRTFGGGTKLEIK
notes: Murine monoclonal antibody from a hybridoma
For the molecule B2, the “Median fold change relative to IgG control” value in [2] was determined as 62 fold; with human C16orf54 [3] it was 204 fold. Besides, the EC50 with human C16orf54 [4] was determined as 100 pM; in assay [7], 2500 pM. The binding result in assay [5] and in assay [6] was “binds” throughout. For the same molecule, the affinity in [8], expressed as Kd, was 600 pM.

B3: R29-8-136C (antibody, V domains shown)
VH: DVQLQESGPGLVKPSQSLSLTCTVTGYSITSDYAWNWIRQFPGNKLEWMGYINYSGSSRYNPSLKSRISITRDTSKNHFFLQLNSVTPEDTATYHCARERYDGVYYGMDYWGQGTSVTVSS
VL: DIVMSQSPSSLAVSVGEKVTMSCKSSQSLLYSSNQKNYLAWYQQKPGQSPKLLIYWASTRESGVPDRFTGSGSGTDFTLTISSVKTEDLAVYYCQQYYSYRTFGGGTKLEIK
notes: as for B2
Take B3: the “Median fold change relative to IgG control” value came to 61.6 fold in assay [2] and 202 fold with human C16orf54 [3]. For the same molecule, the EC50 with human C16orf54 [4] worked out at 200 pM; in assay [7], 2500 pM. Moreover, the binding result in assay [5] and in assay [6] was “binds” throughout. In [8], this molecule showed a Kd of 640 pM.

B4: R29-8-57B: murine anti-C16orf54 monoclonal antibody; VH SEQ ID NO: 20, VL SEQ ID NO: 22 (antibody, V domains shown)
VH: MRVLILLWLFTAFPGILSDVQLQESGPGLVKPSQSLSLTCTVTGYSITSDYAWNWIRQFPGNKLEWMGYINYSGSTRYNPSLKSRISITRDTSKNHFFLQLNSVTPEDTATYHCARERYDGVYYGMDYWGQGTSVTVSS
VL: MDSQAQVLMSLLLWVSGTCGDIVMSQSPSSLAVSVGEKVTMSCKSSQSLLYSSNQKNYLAWYQQKPGQSPKLLIYWASTRESGVPDRFTGSGSGTDFTLTISSVKTEDLAVYYCQQYYSYRTFGGGTKLEIK
modifications: R29-8-57B heavy chain variable region; R29-8-57B light chain variable region
Turning to B4, in the assay with C16orf54 ECD peptides, the Peptide crossblocking entry was “aa1-31, aa1-15”. Further, in the assay with human C16orf54 [9], the “binding to C16orf54-expressing cells (dual binders)” value is “bind to C16orf54-expressing cells” and the “binding to human C16orf54 (flow cytometry)” value was “bind human C16orf54”. The “binding to peptide-Fc fusion proteins (Fc-based ELISA)” value in [10] is “able to bind to the peptide-Fc fusion proteins”. In addition, the “binding to peptides derived from the extracellular domain of C16orf54 (peptide ELISA)” value in assay [11] is on record as “bind to the various peptides derived from the extracellular domain (ECD) of C16orf54”.

B5: R29-8-136C: murine anti-C16orf54 monoclonal antibody; VH SEQ ID NO: 16, VL SEQ ID NO: 18 (antibody, V domains shown)
VH: MRVLILLWLFTAFPGILSDVQLQESGPGLVKPSQSLSLTCTVTGYSITSDYAWNWIRQFPGNKLEWMGYINYSGSSRYNPSLKSRISITRDTSKNHFFLQLNSVTPEDTATYHCARERYDGVYYGMDYWGQGTSVTVSS
VL: MDSQAQVLMSLLLWVSGTCGDIVMSQSPSSLAVSVGEKVTMSCKSSQSLLYSSNQKNYLAWYQQKPGQSPKLLIYWASTRESGVPDRFTGSGSGTDFTLTISSVKTEDLAVYYCQQYYSYRTFGGGTKLEIK
modifications: R29-8-136C heavy chain variable region; R29-8-136C light chain variable region
Turning to B5, the Peptide crossblocking result in the assay on C16orf54 ECD peptides is recorded as “aa1-31, aa1-15”. Besides, in the assay with human C16orf54 [9], the “binding to C16orf54-expressing cells (dual binders)” value is “bind to C16orf54-expressing cells” and the “binding to human C16orf54 (flow cytometry)” value is on record as “bind human C16orf54”. In addition, the “binding to peptides derived from the extracellular domain of C16orf54 (peptide ELISA)” value in [11] was “bind to the various peptides derived from the extracellular domain (ECD) of C16orf54”.
